Positions of bridges follow the written chain, without caps; N, C: chain ends. No end group written: not given here.
Experiments:
[1] = biological target: T1, Prostate-specific antigen (PSA or kallikrein-related peptidase-3, KLK3), major form of active PSA (isoform … (human, UniProt P07288 25-261)); assay: cell-based or functional assay
[2] = biological target: T1, Prostate-specific antigen (PSA or …); assay: SPR; Biacore T100; PSA amine-coupled to a CM5 chip (2000-3900 RU); alpha-chymotrypsin surface as reference, subtracted; peptides 1.2-600 uM flowed in PBS pH 7.4 (6.7 mM PO4, 0.15 M NaCl), 40 ul/min, 25 C, contact 60 s, dissociation 180 s; Steady State Affinity model; details: both partners purified

T1 sequence (P07288 25-261): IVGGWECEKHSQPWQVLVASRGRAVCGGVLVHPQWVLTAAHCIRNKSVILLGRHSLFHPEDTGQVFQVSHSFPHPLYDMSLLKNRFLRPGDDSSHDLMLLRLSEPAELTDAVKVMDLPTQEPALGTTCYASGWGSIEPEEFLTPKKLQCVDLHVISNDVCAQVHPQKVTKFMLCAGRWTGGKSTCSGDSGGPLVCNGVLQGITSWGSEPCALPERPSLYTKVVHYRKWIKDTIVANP

[peptide]2V: peptide concentration with two-fold stimulation of PSA activity, chromogenic substrate S-2586 [1]	[peptide]2V: peptide concentration with two-fold stimulation of PSA activity, fluorogenic substrate 4-morpholinecarbonyl-HSSKLQ-AMC [1]	Kd [2]	Binder
3.33 µM	2.94 µM	56.5 µM	CVFAHNYDYLVC-NH2 (disulfide 1-12; N-terminus assumed; SMILES CC(C)C[C@@H]1NC(=O)[C@H](Cc2ccc(O)cc2)NC(=O)[C@H](CC(=O)O)NC(=O)[C@H](Cc2ccc(O)cc2)NC(=O)[C@H](CC(N)=O)NC(=O)[C@H](Cc2c[nH]cn2)NC(=O)[C@H](C)NC(=O)[C@H](Cc2ccccc2)NC(=O)[C@H](C(C)C)NC(=O)[C@@H](N)CSSC[C@@H](C(N)=O)NC(=O)[C@H](C(C)C)NC1=O, cyclic; purity over 95% by HPLC; source: synthetic peptide, bought as custom peptide (AnaSpec, NeoMPS, Biomatik or GenScript)) [12-amino acid cyclic peptide B2 with C-terminal amidation (B2-NH2)]
1.55 µM	1.36 µM		CVAYCIEHHCWTC (disulfide 1-13, 5-10) [13-amino acid double cyclic peptide C4]
		73.6 µM	CVFAHNYDYLVC-OH (disulfide 1-12; N-terminus assumed; SMILES CC(C)C[C@@H]1NC(=O)[C@H](Cc2ccc(O)cc2)NC(=O)[C@H](CC(=O)O)NC(=O)[C@H](Cc2ccc(O)cc2)NC(=O)[C@H](CC(N)=O)NC(=O)[C@H](Cc2c[nH]cn2)NC(=O)[C@H](C)NC(=O)[C@H](Cc2ccccc2)NC(=O)[C@H](C(C)C)NC(=O)[C@@H](N)CSSC[C@@H](C(=O)O)NC(=O)[C@H](C(C)C)NC1=O, cyclic; purity over 95% by HPLC; source: synthetic peptide, bought as custom peptide (AnaSpec, NeoMPS, Biomatik or GenScript)) [12-amino acid cyclic peptide B2 (without C-terminal amidation)]

— article PMC4169579, “Proteolytic Activity of Prostate-Specific Antigen (PSA) towards Protein Substrates and Effect of Peptides Stimulating PSA Activity” (PLoS ONE, 2014)
